One molecule from PMC3494860 (The Journal of Cell Biology, 2012) can be followed below.

The experiment deals with T1, GST-PATJ (Drosophila melanogaster, UniProt Q9NB04 1-871).
T1 sequence (looked up): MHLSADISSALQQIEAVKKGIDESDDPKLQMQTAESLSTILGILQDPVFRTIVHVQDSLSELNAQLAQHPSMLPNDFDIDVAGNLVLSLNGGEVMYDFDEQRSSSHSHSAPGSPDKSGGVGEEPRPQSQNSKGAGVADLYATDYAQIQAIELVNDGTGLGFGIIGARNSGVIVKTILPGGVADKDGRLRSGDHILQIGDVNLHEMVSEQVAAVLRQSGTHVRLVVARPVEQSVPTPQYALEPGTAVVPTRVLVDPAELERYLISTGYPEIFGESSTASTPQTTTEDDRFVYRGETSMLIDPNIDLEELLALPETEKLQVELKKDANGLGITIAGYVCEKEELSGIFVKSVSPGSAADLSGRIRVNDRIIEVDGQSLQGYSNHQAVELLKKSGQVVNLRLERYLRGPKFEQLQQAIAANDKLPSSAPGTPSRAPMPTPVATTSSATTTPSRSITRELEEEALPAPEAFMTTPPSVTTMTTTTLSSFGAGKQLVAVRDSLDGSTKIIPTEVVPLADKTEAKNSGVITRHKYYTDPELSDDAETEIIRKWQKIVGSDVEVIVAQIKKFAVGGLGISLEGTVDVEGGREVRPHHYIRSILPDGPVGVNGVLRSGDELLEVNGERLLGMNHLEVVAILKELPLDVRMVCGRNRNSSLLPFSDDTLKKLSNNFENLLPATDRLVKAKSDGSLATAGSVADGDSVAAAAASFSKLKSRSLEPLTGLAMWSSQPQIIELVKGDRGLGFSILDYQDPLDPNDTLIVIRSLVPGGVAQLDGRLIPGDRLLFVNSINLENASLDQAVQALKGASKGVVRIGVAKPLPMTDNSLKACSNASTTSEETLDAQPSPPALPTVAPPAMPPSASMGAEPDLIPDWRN
The experiment in a line: pull-down.

B1: MBP-Sqh (natural protein, Drosophila melanogaster, UniProt P40423 1-174, looked up)
chain: MSSRKTAGRRATTKKRAQRATSNVFAMFDQAQIAEFKEAFNMIDQNRDGFVEKEDLHDMLASLGKNPTDDYLDGMMNEAPGPINFTMFLTLFGERLQGTDPEDVIKNAFGCFDEENMGVLPEDRLRELLTTMGDRFTDEDVDEMYREAPIKNGLFDYLEFTRILKHGAKDKDEQ
Take B1: the binding result is listed as “binds”.
